Where “and” joins values, the source holds several entries; their conditions need not be identical. Equal values may be shown once.

Consider 10 molecules from patent US20240254209A1.

Experiment [1] concerns the target T1, peanut allergen Ara h 1 (peanut (Arachis hypogaea)) (UniProt P43238).
T1 sequence (looked up): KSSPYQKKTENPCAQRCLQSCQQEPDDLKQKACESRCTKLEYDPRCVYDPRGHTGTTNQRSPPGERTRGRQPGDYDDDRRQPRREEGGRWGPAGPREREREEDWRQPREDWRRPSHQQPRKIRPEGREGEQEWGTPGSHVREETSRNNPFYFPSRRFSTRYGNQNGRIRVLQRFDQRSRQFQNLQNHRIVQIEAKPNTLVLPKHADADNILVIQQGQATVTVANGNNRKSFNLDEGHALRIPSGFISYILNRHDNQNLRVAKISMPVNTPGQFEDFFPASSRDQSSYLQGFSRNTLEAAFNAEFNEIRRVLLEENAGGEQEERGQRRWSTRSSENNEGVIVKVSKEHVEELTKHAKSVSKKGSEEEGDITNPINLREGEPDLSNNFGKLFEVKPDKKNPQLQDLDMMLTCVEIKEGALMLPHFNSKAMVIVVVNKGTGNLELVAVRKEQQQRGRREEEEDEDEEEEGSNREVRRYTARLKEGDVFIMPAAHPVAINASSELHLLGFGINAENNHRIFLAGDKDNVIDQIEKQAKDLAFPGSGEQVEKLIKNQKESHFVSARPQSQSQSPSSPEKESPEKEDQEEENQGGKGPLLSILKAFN
As to the kind of experiment: ImmunoCAP, hybridoma supernatant.

The target of experiment [2] is T2, peanut allergen Ara h 2 (peanut (Arachis hypogaea)) (UniProt Q6PSU2).
T2 sequence (looked up): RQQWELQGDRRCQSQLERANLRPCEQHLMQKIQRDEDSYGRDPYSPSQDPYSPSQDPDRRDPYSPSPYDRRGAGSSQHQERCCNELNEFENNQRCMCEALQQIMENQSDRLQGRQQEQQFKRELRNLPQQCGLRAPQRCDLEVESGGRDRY
Kind of experiment: ImmunoCAP, hybridoma supernatant.

In experiment [3] the target is peanut extract (peanut ImmunoCAP F13). As to the kind of experiment: ImmunoCAP, hybridoma supernatant.
Experiment [4] has the same target. As to the kind of experiment: peanut ImmunoCAP serum blocking; competitor: serum IgE of peanut allergic subjects.
Experiment [5] deals with T3, peanut allergen Ara h 6 (peanut (Arachis hypogaea)) (UniProt Q647G9).
T3 sequence (looked up): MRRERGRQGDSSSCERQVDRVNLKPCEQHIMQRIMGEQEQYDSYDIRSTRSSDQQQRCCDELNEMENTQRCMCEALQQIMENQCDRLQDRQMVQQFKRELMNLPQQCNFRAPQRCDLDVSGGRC
Kind of experiment: Ara h 6 ImmunoCAP serum blocking; competitor: serum IgE of peanut allergic subjects.

B1: human IgE mAb 38B7 (antibody, V domains shown)
VH: QVQLVESGGGVVQPGRSLRLSCVGSGFTFRRDAKYWVRQAPGKGLEWVAAISHDGGEEDYAESVKGRFTISRDNSRETVYLEMNSLRPEDTAVYYCATTRSGWYFDYWGQGALVTVSS
VL: EIVLTQSPATLSLSPGARATLSCRASQSVDTYLAWYQQRRGQSPRLLIYDASKRATGIPARFSGSGSGTDFTLTISSLEPEDFAVYYCQQRNNWRTWTFGQGTKVEIN
B1: the ImmunoCAP kUA/L came out at 0.11 kUA/L in experiment [1], 203 kUA/L in experiment [2] and 286 kUA/L in experiment [3].

B2: human IgE mAb 2C9 (antibody, V domains shown)
VH: QVQLVESGGGLVKPGGSLRLSCAASGFSFSDFYMSWIRQAPGKGLECISYMSSSGGNIYYADSVKGRFTISRDNAKNSLSLQMNSLRADDTALYYCARRRYGSGSSIFDYWSQGTLVTVSS
VL: SYELTQPPSVSVSPGQTASVTCSGDTLGDRYVSWYQQKAGQSPVLVIYQSGQRPSGIPERFSGSNSGNTATLSISETQALDEADYYCLTWDRGTPVFGPGTTVTVV
Regarding B2, the figures for the ImmunoCAP kUA/L in experiment [2] and in experiment [3] were 0.13 kUA/L and 21.4 kUA/L, respectively.

B3: human IgE mAb 15A7 (antibody, V domains shown)
VH: QVQLVQSGPEVRKPGASVKVSCKTSGYMFTDYEMNWVRQAPGQGLEWMGLINPHSGDTGYAQKFQGRVSMTSDTSTRTFYLELTGLTSEDTAVYYCARSQGTFEVYYFVSWGQGSLVTVSS
VL: SYVLTQPPSVSVAPGKTASITCGAKNIATKRVHWYRQKPGQAPVVVVSDEEDRSSVIPERFSGSKSGDTATLEISRVEAGDEADYYCQVWDSLADQVVFGGGTKVTVL
Turning to B3, the results for the ImmunoCAP kUA/L in experiment [2] and in experiment [3] were 25.8 kUA/L and 14 kUA/L, respectively.

B4: human IgE mAb 3C3 (antibody, V domains shown)
VH: QLQLQESGPGLVKPSETLSLTCSISGASINSDDYYWGWIRQAPGEALEWIASIDASGTTFYNPSLRSRVTISVDTSTNQISLRLNSVTAADTAIYYCARRKTYYDFLTDYYNWYFDVWGRGTLVTVSS
VL: QSALTQPRSVSGSPGQSVTFSCTGINSDIRDYDYVSWYQQHPGEAPKLIIYDVTKRASGVPSRFSGSKSGNTASLTISGLQAEDEADYYCCSYSVTYSFEVFGTGTQVSVL
For the molecule B4, the ImmunoCAP kUA/L in experiment [1] came to 0.6 kUA/L; in experiment [2], 0.85 kUA/L; in experiment [3], 3140 kUA/L.

B5: Ara h 6-specific blocking IgG mAb 8F3 (antibody, V domains shown)
VH: QLQLQESGPGLVKPSETLSLTCTVSDASIDTPSYFWSWIRQPPGKGLEWIGSIYYTGNKYSNPSLKSRVTMSVDTPKRQFSLRLSSVTAADTAVYYCARYVDYVWLRAFDIWGQGTRVTVSS
VL: EIVLTQSPATLSLSPGERATLSCRASPSAGRFLAWYQQRPGQAPRLLIYDASKRATDTPARFSGSGSGTDFNLTIASLEPEDFAVYYCQHRSNWPLTFGGGTKVEIK
Regarding B5, in experiment [4], the percent of total peanut binding serum IgE blocked was 20% and 25%. The percent of serum Ara h 6-specific IgE blocked in experiment [5] is 50%.

B6: human IgE mAb 3B7 (antibody, V domains shown)
VH: QVQLVQSGSELKKPGASMKVSCKASGYTFTNYAMNWVRQAPGQGLEWMGWINTNTGKPTYAQGFTGRFVFSLDTSVSMAYLQISSLEAGDTAVYFCARGESLAALGSFAYWGQGTLVTVSS
VL: DIQMTQSPSSLSASVGDRVTITCRASQSINSYLAWYQQKPGKAPNLLIYAASNLQSGVPSRFSGSGSGTDFTLTISSLQPEDFATYYCQQSSSTFWTFGQGTKVEIK
B6: the ImmunoCAP kUA/L in experiment [1] was 0.3 kUA/L; in experiment [2] it was 0.63 kUA/L; in experiment [3] it was 1500 kUA/L.

B7: Ara h 6-specific blocking IgG mAb 1H9 (antibody, V domains shown)
VH: QVQLVQSGSELRKPGASVKVSCKASGYTFTKYGMNWVRQAPGQGLEWMGWINTNTAKPTYAQDFTGRFVFSLDTSVNTAYLEISGLKAEDTAVYYCATDGSEGSWGQGTLVTVSS
VL: DIQMTQSPSTLSASVGDRVTITCRASQSIGTWLAWHQQKPGTAPKVLIYKASNLKSGVPSRFSGSGSGTDFTLTISSLQPDDVATYYCQQYNTYSGTFGQGTRVEIK
For the molecule B7, the percent of total peanut binding serum IgE blocked in experiment [4] was 20% and 25%. This molecule also yielded a percent of serum Ara h 6-specific IgE blocked in experiment [5] of 50%.

B8: human IgE mAb 26A5 (antibody, V domains shown)
VH: QVQLVQSGSELRKPGASVKVSCKASGYTFTKYGMNWVRQAPGQGLEWMGWINTNTAKPTYAQDFTGRFVFSLDTSVNTAYLEISGLKAEDTAVYYCATDGSEGSWGQGTLVTVSS
VL: DIQMTQSPSTLSASVGDRVTITCRASQSIGTWLAWHQQKPGTAPKVLIYKASNLKSGVPSRFSGSGSGTDFTLTISSLQPDDVATYYCQQYNTYSGTFGQGTRVEIK
For B8, the ImmunoCAP kUA/L in experiment [1] was 0.15 kUA/L; in experiment [2], 0.46 kUA/L; in experiment [3], 783 kUA/L.

B9: human IgE mAb 21C10 (antibody, V domains shown)
VH: EVQLVESGGGLVKPGGSLRLSCAASGFILSRSSMSWVRQAPGKGLEWVSYISSTSSHIYYADSLKGRFTISRDNTENSVYLQMSSLRAEDTGVYYCARKTNGAWFLDLWGRGTLVTVSS
VL: QSVLTQPPSVSGAPGQRVTISCTGSSSNIGAGSDVHWYQQFPGSAPHVLIYGNNQRPSGVPDRFSASKSGTSASLAITGLQADDEADYYCQSYDYDLSGSWVFGGGTKLTVL
In the case of B9, the values for the ImmunoCAP kUA/L in experiment [1], in experiment [2] and in experiment [3] were 0.36 kUA/L, 0.46 kUA/L and 715 kUA/L, respectively.

B10: human IgE mAb 7B6 (antibody, V domains shown)
VH: QVQLQQWGAGLLKPSETLSLTCAVYGGSFNGYYWSWIRQPPGKGLEWIGEIDHSGSTNYNSSLKSRVTISVDTSKNQFSLKLSSVTAADTAVYYCARRRIGSLLKYFQDWGQGTLVTVSS
VL: SYELTQPPSVSVSPGQTASITCSGDKLGDSYVCWYQLKPGQSPVLVIYQDTKRPSGIPERFSGSNSGNTATLTISETQAMDEADYYCQAWDTTTDWVFGGGTKLTVL
On to B10, for which the figures for the ImmunoCAP kUA/L in experiment [1], in experiment [2] and in experiment [3] were 0.19 kUA/L, 0.41 kUA/L and 420 kUA/L, respectively.
